Data reported in patent US20030104423A1 (WISCONSIN ALUMNI RESEARCH FOUNDATION, published 2003).

Assays:
[1] = molecular target: T1, σ70, native, untagged (pLN12) (Escherichia coli, UniProt P00579 1-613); experiment: Ni-NTA co-immobilization, SDS-PAGE
T1 construct: range 1-613; also called native ?^70

[2] = molecular target: T2, HMK-His6-σ70, 32P-labeled (pHMK-His6-σ70) (Escherichia coli, UniProt P00579 1-613); experiment: far-Western binding, 32P-σ70 probe; grade
T2 construct: range 1-613; also called ^32P-labeled ?^70; HMK-?^70

Binder | binding result [1] | binding result [2]
His6-tagged β′100-309 (pTA533) (enzyme) ERMGHIELASPTAHIWFLKSLPSRIGLLLDMPLRDIERVLYFESYVVIEGGMTNLERQQILTEEQYLDALEEFGDEFDAKMGAEAIQALLKSMDLEQECEQLREELNETNSETKRKKLTKRIKLLEAFVQSGNKPEWMILTVLPVLPPDLRPLVPLDGGRFATSDLNDLYRRVINRNNRLKRLLDLAAPDIIVRNEKRMLQEAVDALLDN | binds | –
His6-tagged β′178-309 (pTA537) (enzyme) AKMGAEAIQALLKSMDLEQECEQLREELNETNSETKRKKLTKRIKLLEAFVQSGNKPEWMILTVLPVLPPDLRPLVPLDGGRFATSDLNDLYRRVINRNNRLKRLLDLAAPDIIVRNEKRMLQEAVDALLDN | binds | –
His6-HMK-β′1-280 (pTA523) (enzyme, range 1-280) MKDLLKFLKAQTKTEEFDAIKIALASPDMIRSWSFGEVKKPETINYRTFKPERDGLFCARIFGPVKDYECLCGKYKRLKHRGVICEKCGVEVTQTKVRRERMGHIELASPTAHIWFLKSLPSRIGLLLDMPLRDIERVLYFESYVVIEGGMTNLERQQILTEEQYLDALEEFGDEFDAKMGAEAIQALLKSMDLEQECEQLREELNETNSETKRKKLTKRIKLLEAFVQSGNKPEWMILTVLPVLPPDLRPLVPLDGGRFATSDLNDLYRRVINRNNRLK | no binding | –
β′1-319 wild type, untagged (pTA620) (enzyme) MKDLLKFLKAQTKTEEFDAIKIALASPDMIRSWSFGEVKKPETINYRTFKPERDGLFCARIFGPVKDYECLCGKYKRLKHRGVICEKCGVEVTQTKVRRERMGHIELASPTAHIWFLKSLPSRIGLLLDMPLRDIERVLYFESYVVIEGGMTNLERQQILTEEQYLDALEEFGDEFDAKMGAEAIQALLKSMDLEQECEQLREELNETNSETKRKKLTKRIKLLEAFVQSGNKPEWMILTVLPVLPPDLRPLVPLDGGRFATSDLNDLYRRVINRNNRLKRLLDLAAPDIIVRNEKRMLQEAVDALLDNGRRGRAITGS | – | binds
β′1-319 N309D (pTA619) (enzyme) MKDLLKFLKAQTKTEEFDAIKIALASPDMIRSWSFGEVKKPETINYRTFKPERDGLFCARIFGPVKDYECLCGKYKRLKHRGVICEKCGVEVTQTKVRRERMGHIELASPTAHIWFLKSLPSRIGLLLDMPLRDIERVLYFESYVVIEGGMTNLERQQILTEEQYLDALEEFGDEFDAKMGAEAIQALLKSMDLEQECEQLREELNETNSETKRKKLTKRIKLLEAFVQSGNKPEWMILTVLPVLPPDLRPLVPLDGGRFATSDLNDLYRRVINRNNRLKRLLDLAAPDIIVRNEKRMLQEAVDALLDDGRRGRAITGS | – | binds
β′1-319 N266D (pTA610) (enzyme) MKDLLKFLKAQTKTEEFDAIKIALASPDMIRSWSFGEVKKPETINYRTFKPERDGLFCARIFGPVKDYECLCGKYKRLKHRGVICEKCGVEVTQTKVRRERMGHIELASPTAHIWFLKSLPSRIGLLLDMPLRDIERVLYFESYVVIEGGMTNLERQQILTEEQYLDALEEFGDEFDAKMGAEAIQALLKSMDLEQECEQLREELNETNSETKRKKLTKRIKLLEAFVQSGNKPEWMILTVLPVLPPDLRPLVPLDGGRFATSDLDDLYRRVINRNNRLKRLLDLAAPDIIVRNEKRMLQEAVDALLDNGRRGRAITGS | – | binds
β′ mutant E301P (enzyme) MKDLLKFLKAQTKTEEFDAIKIALASPDMIRSWSFGEVKKPETINYRTFKPERDGLFCARIFGPVKDYECLCGKYKRLKHRGVICEKCGVEVTQTKVRRERMGHIELASPTAHIWFLKSLPSRIGLLLDMPLRDIERVLYFESYVVIEGGMTNLERQQILTEEQYLDALEEFGDEFDAKMGAEAIQALLKSMDLEQECEQLREELNETNSETKRKKLTKRIKLLEAFVQSGNKPEWMILTVLPVLPPDLRPLVPLDGGRFATSDLNDLYRRVINRNNRLKRLLDLAAPDIIVRNEKRMLQPAVDALLDNGRRGRAITGS | – | no binding
β′1-319 K280E (pTA613) (enzyme) MKDLLKFLKAQTKTEEFDAIKIALASPDMIRSWSFGEVKKPETINYRTFKPERDGLFCARIFGPVKDYECLCGKYKRLKHRGVICEKCGVEVTQTKVRRERMGHIELASPTAHIWFLKSLPSRIGLLLDMPLRDIERVLYFESYVVIEGGMTNLERQQILTEEQYLDALEEFGDEFDAKMGAEAIQALLKSMDLEQECEQLREELNETNSETKRKKLTKRIKLLEAFVQSGNKPEWMILTVLPVLPPDLRPLVPLDGGRFATSDLNDLYRRVINRNNRLERLLDLAAPDIIVRNEKRMLQEAVDALLDNGRRGRAITGS | – | binds
β′1-319 Y269A (pTA611) (enzyme) MKDLLKFLKAQTKTEEFDAIKIALASPDMIRSWSFGEVKKPETINYRTFKPERDGLFCARIFGPVKDYECLCGKYKRLKHRGVICEKCGVEVTQTKVRRERMGHIELASPTAHIWFLKSLPSRIGLLLDMPLRDIERVLYFESYVVIEGGMTNLERQQILTEEQYLDALEEFGDEFDAKMGAEAIQALLKSMDLEQECEQLREELNETNSETKRKKLTKRIKLLEAFVQSGNKPEWMILTVLPVLPPDLRPLVPLDGGRFATSDLNDLARRVINRNNRLKRLLDLAAPDIIVRNEKRMLQEAVDALLDNGRRGRAITGS | – | binds
β′260-309 with C-terminal His6 (pTA546) (enzyme) FATSDLNDLYRRVINRNNRLKRLLDLAAPDIIVRNEKRMLQEAVDALLDNHHHHHH | binds | –
His6-tagged β′33-309 (pTA531) (enzyme) WSFGEVKKPETINYRTFKPERDGLFCARIFGPVKDYECLCGKYKRLKHRGVICEKCGVEVTQTKVRRERMGHIELASPTAHIWFLKSLPSRIGLLLDMPLRDIERVLYFESYVVIEGGMTNLERQQILTEEQYLDALEEFGDEFDAKMGAEAIQALLKSMDLEQECEQLREELNETNSETKRKKLTKRIKLLEAFVQSGNKPEWMILTVLPVLPPDLRPLVPLDGGRFATSDLNDLYRRVINRNNRLKRLLDLAAPDIIVRNEKRMLQEAVDALLDN | binds | –
His6-tagged β′200-309 (pTA538) (enzyme) QLREELNETNSETKRKKLTKRIKLLEAFVQSGNKPEWMILTVLPVLPPDLRPLVPLDGGRFATSDLNDLYRRVINRNNRLKRLLDLAAPDIIVRNEKRMLQEAVDALLDN | binds | –
His6-HMK-β′1-300 (pTA524) (enzyme, range 1-300) MKDLLKFLKAQTKTEEFDAIKIALASPDMIRSWSFGEVKKPETINYRTFKPERDGLFCARIFGPVKDYECLCGKYKRLKHRGVICEKCGVEVTQTKVRRERMGHIELASPTAHIWFLKSLPSRIGLLLDMPLRDIERVLYFESYVVIEGGMTNLERQQILTEEQYLDALEEFGDEFDAKMGAEAIQALLKSMDLEQECEQLREELNETNSETKRKKLTKRIKLLEAFVQSGNKPEWMILTVLPVLPPDLRPLVPLDGGRFATSDLNDLYRRVINRNNRLKRLLDLAAPDIIVRNEKRMLQ | no binding | –
His6-tagged β′60-309 (pTA532) (enzyme) RIFGPVKDYECLCGKYKRLKHRGVICEKCGVEVTQTKVRRERMGHIELASPTAHIWFLKSLPSRIGLLLDMPLRDIERVLYFESYVVIEGGMTNLERQQILTEEQYLDALEEFGDEFDAKMGAEAIQALLKSMDLEQECEQLREELNETNSETKRKKLTKRIKLLEAFVQSGNKPEWMILTVLPVLPPDLRPLVPLDGGRFATSDLNDLYRRVINRNNRLKRLLDLAAPDIIVRNEKRMLQEAVDALLDN | binds | –
